The values that follow come from patent publication US20160368965A1 (IMMATICS BIOTECHNOLOGIES, published 2016).

This test has as its target T1, HLA-A*02:01 (human).
T1 construct: the tested peptide takes its place; also called peptide-receptive MHC molecules; MHC class I
Nature of the test: UV-ligand exchange, anti-β2m ELISA; grade of peptide exchange yield. The source says:
Candidate peptides for T cell based therapies according to the present invention were further tested for their MHC binding capacity (affinity). The individual peptide-MHC complexes were produced by UV-ligand exchange, where a UV-sensitive peptide is cleaved upon UV-irradiation, and exchanged with the peptide of interest as analyzed. Only peptide candidates that can effectively bind and stabilize the peptide-receptive MHC molecules prevent dissociation of the MHC complexes. To determine the yield of the exchange reaction, an ELISA was performed based on the detection of the light chain (β2m) of stabilized MHC complexes. The assay was performed as generally described in Rodenko et al. (Rodenko et al., 2006).
96 well MAXISorp plates (NUNC) were coated over night with 2 ug/ml streptavidin in PBS at room temperature, washed 4× and blocked for 1h at 37° C. in 2% BSA containing blocking buffer. Refolded HLA-A*02:01/MLA-001 monomers served as standards, covering the range of 15-500 ng/ml. Peptide-MHC monomers of the UV-exchange reaction were diluted 100 fold in blocking buffer. Samples were incubated for 1 h at 37° C., washed four times, incubated with 2 ug/ml HRP conjugated anti-β2m for 1h at 37° C., washed again and detected with TMB solution that is stopped with […]. Absorption was measured at 450 nm. Candidate peptides that show a high exchange yield (preferably higher than 50%, most preferred higher than 75%) are generally preferred for a generation and production of antibodies or fragments thereof, and/or T cell receptors or fragments thereof, as they show sufficient avidity to the MHC molecules and prevent dissociation of the MHC complexes.
Regarding SVDGVIKEV [SVDGVIKEV (SEQ ID NO: 117)], the peptide exchange yield lay within 50 to 75%.

As to LLSDVRFVL [LLSDVRFVL (SEQ ID NO: 112)], the peptide exchange yield was in the range of 50 to 75%.

On to ALLEPEFILKA [ALLEPEFILKA (SEQ ID NO: 152)], for which the peptide exchange yield was no less than 75%. The value for SLYGYLRGA [SLYGYLRGA (SEQ ID NO: 142)] was 50 to 75%; that for SLIEKYFSV [SLIEKYFSV (SEQ ID NO: 158)] was no less than 75%; that for ILLAEGRLVNL [ILLAEGRLVNL (SEQ ID NO: 134)] was 50 to 75%. The same measure for ALYEKDNTYL [ALYEKDNTYL (SEQ ID NO: 129)]: 50 to 75%; for KLGPEGELL [KLGPEGELL (SEQ ID NO: 137)]: 50 to 75%; for SLLDLHTKV [SLLDLHTKV (SEQ ID NO: 159)]: 50 to 75%. ALYYNPHLL [ALYYNPHLL (SEQ ID NO: 11)]: the peptide exchange yield lay in the range of 20 to 50%. For the molecule AQYKFVYQV [AQYKFVYQV (SEQ ID NO: 12)], the peptide exchange yield fell in the range of 50 to 75%. The value for VLISGVVHEI [VLISGVVHEI (SEQ ID NO: 146)] was 50 to 75%; that for ALSDLALHFL [ALSDLALHFL (SEQ ID NO: 127)] was no less than 75%; that for KVADLVLML [KVADLVLML (SEQ ID NO: 154)] was 50 to 75%. The same measure for VLLPDERTISL [VLLPDERTISL (SEQ ID NO: 160)]: no less than 75%; for TLWYRPPEL [TLWYRPPEL (SEQ ID NO: 118)]: 50 to 75%; for FLQPDLDSL [FLQPDLDSL (SEQ ID NO: 104)]: 50 to 75%. Turning to SLLNPPETLNL [SLLNPPETLNL (SEQ ID NO: 140)], the peptide exchange yield lay within 50 to 75%.

Molecule ALFQPHLINV [ALFQPHLINV (SEQ ID NO: 150)] came in with a peptide exchange yield of no less than 75%.

The molecule ALFEESGLIRI [ALFEESGLIRI (SEQ ID NO: 124)] registered a peptide exchange yield of 50 to 75%. Molecule TAVALLRLL [TAVALLRLL (SEQ ID NO: 144)] registered a peptide exchange yield of 20 to 50%. Consider LLLPPPPCPA [LLLPPPPCPA (SEQ ID NO: 156)], for which the peptide exchange yield fell in the range of 50 to 75%. As to FIIDNPQDLKV [FIIDNPQDLKV (SEQ ID NO: 14)], the peptide exchange yield lay in the range of 50 to 75%. The value for FIDSSNPGL [FIDSSNPGL (SEQ ID NO: 13)] was 20 to 50%; that for SMMDPNHFL [SMMDPNHFL (SEQ ID NO: 116)] was no less than 75%. The value for ILGTEDLIVEV [ILGTEDLIVEV (SEQ ID NO: 149)] was 50 to 75%; that for NIFPNPEATFV [NIFPNPEATFV (SEQ ID NO: 138)] was 50 to 75%; that for VLLDKIKNL [VLLDKIKNL (SEQ ID NO: 10)] was 20 to 50%. The same measure for LLLDPDTAVLKL [LLLDPDTAVLKL (SEQ ID NO: 155)]: 50 to 75%.

With TTFPRPVTV [TTFPRPVTV (SEQ ID NO: 145)], the peptide exchange yield was 50 to 75%. FLFGEEPSKL [FLFGEEPSKL (SEQ ID NO: 130)]: the peptide exchange yield lay within 50 to 75%.

As to LMMSEDRISL [LMMSEDRISL (SEQ ID NO: 113)], the peptide exchange yield was in the range of 50 to 75%. ALPKEDPTAV [ALPKEDPTAV (SEQ ID NO: 153)] displayed a peptide exchange yield of 50 to 75%.

On to YLHNQGIGV [YLHNQGIGV (SEQ ID NO: 148)], for which the peptide exchange yield fell in the range of 20 to 50%. The value for ALLSLDPAAV [ALLSLDPAAV (SEQ ID NO: 126)] was no less than 75%; that for FILANEHNV [FILANEHNV (SEQ ID NO: 15)] was 50 to 75%; that for ILLTGTPAL [ILLTGTPAL (SEQ ID NO: 110)] was 50 to 75%.

Turning to FLWAGGRASYGV [FLWAGGRASYGV (SEQ ID NO: 132)], the peptide exchange yield was in the range of 50 to 75%. The value for ILASVILNV [ILASVILNV (SEQ ID NO: 109)] was no less than 75%.

In the case of KLFPGFEIETV [KLFPGFEIETV (SEQ ID NO: 136)], the peptide exchange yield was no less than 75%. The value for SLFPHNPQFI [SLFPHNPQFI (SEQ ID NO: 114)] was 50 to 75%; that for ILDDVSLTHL [ILDDVSLTHL (SEQ ID NO: 133)] was 20 to 50%. The value for ALLDIIRSL [ALLDIIRSL (SEQ ID NO: 151)] was no less than 75%; that for VLGDDPQLMKV [VLGDDPQLMKV (SEQ ID NO: 119)] was 50 to 75%. The value for YAFPKAVSV [YAFPKAVSV (SEQ ID NO: 147)] was 20 to 50%; that for ALYDVRTILL [ALYDVRTILL (SEQ ID NO: 128)] was 50 to 75%; that for MQAPRAALVFA [MQAPRAALVFA (SEQ ID NO: 122)] was no less than 75%. With KLDDTYIKA [KLDDTYIKA (SEQ ID NO: 135)], the peptide exchange yield fell in the range of 50 to 75%. In the case of FLIEEQKIVV [FLIEEQKIVV (SEQ ID NO: 131)], the peptide exchange yield is 50 to 75%.

Regarding YLDEDTIYHL [YLDEDTIYHL (SEQ ID NO: 121)], the peptide exchange yield lay within 20 to 50%. The value for FVDTRTLL [FVDTRTLL (SEQ ID NO: 1)] was 20 to 50%.

FLSEVFHQA [FLSEVFHQA (SEQ ID NO: 105)] registered a peptide exchange yield of 50 to 75%.

The molecule YLPDIIKDQKA [YLPDIIKDQKA (SEQ ID NO: 161)] registered a peptide exchange yield of 50 to 75%. For the molecule KISTITPQI [KISTITPQI (SEQ ID NO: 123)], the peptide exchange yield fell in the range of 20 to 50%. For LLLAAARLAAA [LLLAAARLAAA (SEQ ID NO: 111)], the peptide exchange yield fell in the range of 50 to 75%. Take MLLEIPYMAA [MLLEIPYMAA (SEQ ID NO: 157)]: the peptide exchange yield was in the range of 50 to 75%. For SIDRNPPQL [SIDRNPPQL (SEQ ID NO: 139)], the peptide exchange yield fell in the range of 50 to 75%. The value for ALLGKLDAINV [ALLGKLDAINV (SEQ ID NO: 125)] was 50 to 75%; that for FVWSGTAEA [FVWSGTAEA (SEQ ID NO: 106)] was 50 to 75%. The same measure for FVYGGPQVQL [FVYGGPQVQL (SEQ ID NO: 107)]: 50 to 75%; for SLMDPNKFLLL [SLMDPNKFLLL (SEQ ID NO: 115)]: 50 to 75%.
